Test results as given in patent US20230406951A1 (Pfizer, published 2023).

T1: human TNFR2 (human, UniProt P20333 23-461)
T1 construct: expressed on the surface of CHO cells; also called HuTNFR2; TNFRSF1B
T1 sequence: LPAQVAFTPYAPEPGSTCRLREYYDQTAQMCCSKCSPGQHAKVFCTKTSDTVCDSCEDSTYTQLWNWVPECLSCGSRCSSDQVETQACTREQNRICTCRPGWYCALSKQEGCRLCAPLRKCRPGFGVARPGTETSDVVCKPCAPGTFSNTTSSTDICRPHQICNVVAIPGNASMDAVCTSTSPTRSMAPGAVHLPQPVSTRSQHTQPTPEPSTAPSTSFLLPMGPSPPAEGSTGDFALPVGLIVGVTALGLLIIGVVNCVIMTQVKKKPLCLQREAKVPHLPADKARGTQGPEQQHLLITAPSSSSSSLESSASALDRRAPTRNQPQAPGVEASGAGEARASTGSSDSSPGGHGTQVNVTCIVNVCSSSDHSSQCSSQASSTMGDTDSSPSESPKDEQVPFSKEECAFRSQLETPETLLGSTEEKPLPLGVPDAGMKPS


target: T1, human TNFR2; experiment: binding to human TNFR2 CHO cells

Binder	binding result
IgG 1931 (antibody, name in Kabat numbering, V domains shown, IgG) VH: QVQLVQSGAEVKKPGASVKVSCKVSGFSFPSSGVDWVRQAPGQGLEWLGVTWGVGSTHYNQKFQGRVTITKDTSKSTVYMELSSLRSEDTAVYYCASGESTEGFVYWGQGTLVTVSS VL: DIQLTQSPSFLSASVGDRVTITCKASQNVGTAVAWYQQKPGKAPKLLIYAASTLQSGVPSRFSGSGSGTEFTLTISSLQPEDFATYYCQQYYSTPFGGGTKVEIKR	no binding
IgG 1979 (antibody, name in Kabat numbering, V domains shown, IgG) VH: QVQLVQSGAEVKKPGASVKVSCKVSGFSFPSSGVDWVRQAPGQGLEWLGVTRGEGSTHYNQKFQGRVTITKDTSKSTVYMELSSLRSEDTAVYYCASGERDEGFVYWGQGTLVTVSS VL: DIQLTQSPSFLSASVGDRVTITCKASQNVGTAVAWYQQKPGKAPKLLIYAASTLQSGVPSRFSGSGSGTEFTLTISSLQPEDFATYYCQQYNSYPFGGGTKVEIKR	no binding
IgG 1997 (antibody, name in Kabat numbering, V domains shown, IgG) VH: QVQLVQSGAEVKKPGASVKVSCKVSGFSFPSSGVDWVRQAPGQGLEWLGVTRGEGSTHYNQKFQGRVTITKDTSKSTVYMELSSLRSEDTAVYYCASGESTEGFVYWGQGTLVTVSS VL: DIQLTQSPSFLSASVGDRVTITCKASQNVGTAVAWYQQKPGKAPKLLIYAASTLQSGVPSRFSGSGSGTEFTLTISSLQPEDFATYYCQQYYSTPFGGGTKVEIKR	no binding
IgG 1987 (antibody, name in Kabat numbering, V domains shown, IgG) VH: QVQLVQSGAEVKKPGASVKVSCKVSGFSFPSSGVDWVRQAPGQGLEWLGVTLGHGSTHYNQKFQGRVTITKDTSKSTVYMELSSLRSEDTAVYYCASGERDEGFVYWGQGTLVTVSS VL: DIQLTQSPSFLSASVGDRVTITCKASQNVGTAVAWYQQKPGKAPKLLIYAASTLQSGVPSRFSGSGSGTEFTLTISSLQPEDFATYYCQQYNSYPFGGGTKVEIKR	no binding
IgG 1990 (antibody, name in Kabat numbering, V domains shown, IgG) VH: QVQLVQSGAEVKKPGASVKVSCKVSGFSFPSSGVDWVRQAPGQGLEWLGVTHGSGSTHYNQKFQGRVTITKDTSKSTVYMELSSLRSEDTAVYYCASGEHDEGFVYWGQGTLVTVSS VL: DIQLTQSPSFLSASVGDRVTITCKASQNVGTAVAWYQQKPGKAPKLLIYAASTLQSGVPSRFSGSGSGTEFTLTISSLQPEDFATYYCQQYNSYPFGGGTKVEIKR	no binding
IgG 1973 (antibody, name in Kabat numbering, V domains shown, IgG) VH: QVQLVQSGAEVKKPGASVKVSCKVSGFSFPSSGVDWVRQAPGQGLEWLGVTKGQGSTHYNQKFQGRVTITKDTSKSTVYMELSSLRSEDTAVYYCASGESTEGFVYWGQGTLVTVSS VL: DIQLTQSPSFLSASVGDRVTITCKASQNVGTAVAWYQQKPGKAPKLLIYAASTLQSGVPSRFSGSGSGTEFTLTISSLQPEDFATYYCQQYNSYPFGGGTKVEIKR	no binding
IgG 1982 (antibody, name in Kabat numbering, V domains shown, IgG) VH: QVQLVQSGAEVKKPGASVKVSCKVSGFSFPSSGVDWVRQAPGQGLEWLGVTFQEGSTHYNQKFQGRVTITKDTSKSTVYMELSSLRSEDTAVYYCASGEHDEGFVYWGQGTLVTVSS VL: DIQLTQSPSFLSASVGDRVTITCKASQNVGTAVAWYQQKPGKAPKLLIYAASTLQSGVPSRFSGSGSGTEFTLTISSLQPEDFATYYCQQYNSYPFGGGTKVEIKR	no binding
IgG 1932 (antibody, name in Kabat numbering, V domains shown, IgG) VH: QVQLVQSGAEVKKPGASVKVSCKVSGFSFPSSGVDWVRQAPGQGLEWLGVTWGVGSTHYNQKFQGRVTITKDTSKSTVYMELSSLRSEDTAVYYCASGEHDEGFVYWGQGTLVTVSS VL: DIQLTQSPSFLSASVGDRVTITCKASQNVGTAVAWYQQKPGKAPKLLIYAASTLQSGVPSRFSGSGSGTEFTLTISSLQPEDFATYYCQQYYSTPFGGGTKVEIKR	no binding
IgG 1977 (antibody, name in Kabat numbering, V domains shown, IgG) VH: QVQLVQSGAEVKKPGASVKVSCKVSGFSFPSSGVDWVRQAPGQGLEWLGVTRGEGSTHYNQKFQGRVTITKDTSKSTVYMELSSLRSEDTAVYYCASGESTEGFVYWGQGTLVTVSS VL: DIQLTQSPSFLSASVGDRVTITCKASQNVGTAVAWYQQKPGKAPKLLIYAASTLQSGVPSRFSGSGSGTEFTLTISSLQPEDFATYYCQQYNSYPFGGGTKVEIKR	no binding

The next lines start with the values.

binding result	Binder
no binding	IgG 1978 (antibody, name in Kabat numbering, V domains shown, IgG) VH: QVQLVQSGAEVKKPGASVKVSCKVSGFSFPSSGVDWVRQAPGQGLEWLGVTRGEGSTHYNQKFQGRVTITKDTSKSTVYMELSSLRSEDTAVYYCASGEHDEGFVYWGQGTLVTVSS VL: DIQLTQSPSFLSASVGDRVTITCKASQNVGTAVAWYQQKPGKAPKLLIYAASTLQSGVPSRFSGSGSGTEFTLTISSLQPEDFATYYCQQYNSYPFGGGTKVEIKR
no binding	IgG 1933 (antibody, name in Kabat numbering, V domains shown, IgG) VH: QVQLVQSGAEVKKPGASVKVSCKVSGFSFPSSGVDWVRQAPGQGLEWLGVTWGVGSTHYNQKFQGRVTITKDTSKSTVYMELSSLRSEDTAVYYCASGERDEGFVYWGQGTLVTVSS VL: DIQLTQSPSFLSASVGDRVTITCKASQNVGTAVAWYQQKPGKAPKLLIYAASTLQSGVPSRFSGSGSGTEFTLTISSLQPEDFATYYCQQYYSTPFGGGTKVEIKR
no binding	IgG 1980 (antibody, name in Kabat numbering, V domains shown, IgG) VH: QVQLVQSGAEVKKPGASVKVSCKVSGFSFPSSGVDWVRQAPGQGLEWLGVTRGEGSTHYNQKFQGRVTITKDTSKSTVYMELSSLRSEDTAVYYCASGEQDEGFVYWGQGTLVTVSS VL: DIQLTQSPSFLSASVGDRVTITCKASQNVGTAVAWYQQKPGKAPKLLIYAASTLQSGVPSRFSGSGSGTEFTLTISSLQPEDFATYYCQQYNSYPFGGGTKVEIKR
no binding	IgG 1989 (antibody, name in Kabat numbering, V domains shown, IgG) VH: QVQLVQSGAEVKKPGASVKVSCKVSGFSFPSSGVDWVRQAPGQGLEWLGVTHGSGSTHYNQKFQGRVTITKDTSKSTVYMELSSLRSEDTAVYYCASGESTEGFVYWGQGTLVTVSS VL: DIQLTQSPSFLSASVGDRVTITCKASQNVGTAVAWYQQKPGKAPKLLIYAASTLQSGVPSRFSGSGSGTEFTLTISSLQPEDFATYYCQQYNSYPFGGGTKVEIKR
no binding	IgG 2002 (antibody, name in Kabat numbering, V domains shown, IgG) VH: QVQLVQSGAEVKKPGASVKVSCKVSGFSFPSSGVDWVRQAPGQGLEWLGVTFQEGSTHYNQKFQGRVTITKDTSKSTVYMELSSLRSEDTAVYYCASGEHDEGFVYWGQGTLVTVSS VL: DIQLTQSPSFLSASVGDRVTITCKASQNVGTAVAWYQQKPGKAPKLLIYAASTLQSGVPSRFSGSGSGTEFTLTISSLQPEDFATYYCQQYYSTPFGGGTKVEIKR
no binding	IgG 1991 (antibody, name in Kabat numbering, V domains shown, IgG) VH: QVQLVQSGAEVKKPGASVKVSCKVSGFSFPSSGVDWVRQAPGQGLEWLGVTHGSGSTHYNQKFQGRVTITKDTSKSTVYMELSSLRSEDTAVYYCASGERDEGFVYWGQGTLVTVSS VL: DIQLTQSPSFLSASVGDRVTITCKASQNVGTAVAWYQQKPGKAPKLLIYAASTLQSGVPSRFSGSGSGTEFTLTISSLQPEDFATYYCQQYNSYPFGGGTKVEIKR
no binding	IgG 1934 (antibody, name in Kabat numbering, V domains shown, IgG) VH: QVQLVQSGAEVKKPGASVKVSCKVSGFSFPSSGVDWVRQAPGQGLEWLGVTWGVGSTHYNQKFQGRVTITKDTSKSTVYMELSSLRSEDTAVYYCASGEQDEGFVYWGQGTLVTVSS VL: DIQLTQSPSFLSASVGDRVTITCKASQNVGTAVAWYQQKPGKAPKLLIYAASTLQSGVPSRFSGSGSGTEFTLTISSLQPEDFATYYCQQYYSTPFGGGTKVEIKR
